± gives the uncertainty stated by the source.
Assay: protein stability index of a GFP-peptide fusion (yeast GPS) (PSI 1-4); higher = more stable; sorted into four equal gates, so the index is relative within each strain
Method in brief: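 Tiled 17-residue yeast protein peptides were fused downstream of GFP in a plasmid that also expresses Cherry, and the pooled library was carried in yeast. Mid-log cultures in leucine-free medium were sorted into four equal gates by GFP/Cherry fluorescence ratio, and plasmids from each gate were PCR-amplified and Illumina-sequenced, with reads assigned to strains by barcodes. The protein stability index for each peptide was each gate's read frequency times its gate number, summed.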

Sequence | protein stability index (doa10∆) | protein stability index (pdr5∆) | protein stability index (san1∆) | protein stability index (ubr1∆)
CPEEFAESMCQELELPG [SNF5] | 3.25 ± 0.073 | 3 ± 0.074 | 2.71 ± 0.07 | 3.03 ± 0.075
AIPLLKVLRKFRVQSQS [NUT1] | 1.69 ± 0.085 | 1.93 ± 0.079 | 1.69 ± 0.11 | 2.5 ± 0.053
NIDETSDEVSRGIPRLS [SMC4] | 3.06 ± 0.2 | – | 2.97 ± 0.22 | –
QMEDMEESINEFKSIEI [SMC4] | 3.28 ± 0.13 | 3.4 ± 0.11 | 3.27 ± 0.049 | 2.93 ± 0.085
QSSLSKVDIPLEVVQYI [NUT2] | 2.69 ± 0.081 | 2.16 ± 0.086 | 2.24 ± 0.083 | 2.29 ± 0.071
PDKLLGVILMFAAILVL [COB] | 1.63 ± 0.11 | 1.62 ± 0.11 | 1.66 ± 0.12 | 1.59 ± 0.11
NKIRNLELPLCPYCYKK [SIR2] | 2.52 ± 0.055 | 1.95 ± 0.062 | 1.97 ± 0.069 | 1.98 ± 0.074
DIPELSFFHQSNMQKSL [RPN3] | 2.56 ± 0.065 | 2.13 ± 0.067 | 2.8 ± 0.068 | 2.87 ± 0.045
YILRYLHANGASFFFMV [COB] | 1.57 ± 0.041 | 1.27 ± 0.033 | 1.39 ± 0.081 | 1.36 ± 0.038
IDWASPEYGRIIASASY [YGL100W/SEH1] | 2.8 ± 0.064 | 3.16 ± 0.053 | 3.09 ± 0.054 | 2.71 ± 0.055
YKNLDRGFSKDLKSKAD [RRP6] | 3.05 ± 0.1 | 3.27 ± 0.15 | 3.31 ± 0.065 | 3.53 ± 0.099
KTSKDIAVLRSKEWFQL [FAS1] | 2.01 ± 0.033 | 2.07 ± 0.031 | 1.91 ± 0.046 | 2.25 ± 0.032
STTAALQSISSLTISLY [RPN7] | 1.74 ± 0.041 | 1.82 ± 0.035 | 1.95 ± 0.049 | 2.12 ± 0.047
LGNSIVKESNNYYSNKS [REC8] | 2.68 ± 0.15 | – | 2.94 ± 0.3 | –
VANQTSATFLRIVGSEL [RPT2] | 2.45 ± 0.12 | 2.29 ± 0.096 | 2.15 ± 0.15 | 2.13 ± 0.082
VEGISEVQARKSKSVSF [RPT5] | 3.41 ± 0.068 | 3.49 ± 0.11 | 3.41 ± 0.068 | 3.3 ± 0.069
LTEQIRELREVIELPLK [RPT4] | 2.69 ± 0.14 | 3.73 ± 0.27 | 3.12 ± 0.17 | 3.06 ± 0.087
ASFYSVNTEKKTIEVTA [RPN3] | – | 1.29 ± 0.11 | – | 1.65 ± 0.28
AVIESVVNQPTGKIVDV [FAS1] | 2.49 ± 0.097 | 2.57 ± 0.14 | 2.52 ± 0.089 | 2.39 ± 0.08
TPGLTFNAIDLARHLPA [RPC82] | 2.71 ± 0.069 | 2.73 ± 0.061 | 2.77 ± 0.056 | 3.21 ± 0.075
DLKESMVKGLLKSFTES [ECM29] | 3.34 ± 0.26 | 3 ± 0.19 | 2.8 ± 0.1 | 3.34 ± 0.096
KASVLEISPQDSIASVL [GAL11] | 3.27 ± 0.09 | 3.39 ± 0.066 | 3.13 ± 0.083 | 3.13 ± 0.086
SGSQNISEFDSFTDILK [RPN12] | 3.37 ± 0.17 | 3.12 ± 0.09 | 3 ± 0.099 | 3.03 ± 0.066
HINSILLARVIQMNNSL [SNF11] | 2.22 ± 0.13 | 1.94 ± 0.11 | 1.96 ± 0.12 | 1.7 ± 0.092
ELQIFKTANSSSDAFEK [YIL149C/MLP2] | 2.44 ± 0.049 | 2.73 ± 0.049 | 2.61 ± 0.061 | 2.75 ± 0.049
MNNETSGKETASAPLCS [DLS1] | 3.01 ± 0.067 | 3.21 ± 0.06 | 3.18 ± 0.055 | 3.12 ± 0.063

Sequence | protein stability index (doa10∆) | protein stability index (pdr5∆) | protein stability index (san1∆) | protein stability index (ubr1∆)
DNDSLTDLESLSSGESN [SIR4] | 3.15 ± 0.096 | 3.31 ± 0.12 | 3.07 ± 0.074 | 3.09 ± 0.073
RKRAHSLVSTQSSSSTR [REC8] | 2.86 ± 0.069 | 2.94 ± 0.068 | 2.77 ± 0.051 | 2.92 ± 0.068
YENKQLYFPDDYPFTQL [POP1] | 2.92 ± 0.048 | 2.99 ± 0.039 | 2.93 ± 0.043 | 3.01 ± 0.036
EQWITIESQMRDLILTE [PRP8] | 2.78 ± 0.088 | 3.1 ± 0.092 | 3.08 ± 0.073 | 3.14 ± 0.077
IISRLNADFQKPWFATV [FAS1] | 2.27 ± 0.066 | 2.4 ± 0.063 | 2.1 ± 0.071 | 2.96 ± 0.069
NSKNDSANVELFKRDCN [YCS4] | 2.75 ± 0.071 | 3.05 ± 0.089 | 3.25 ± 0.12 | 3.17 ± 0.07
KAHPNFPIALQWTGGRG [FAS1] | 2.62 ± 0.13 | 2.64 ± 0.12 | 2.2 ± 0.096 | 2.01 ± 0.092
QLDGFSSDDRVKVLAAT [RPT5] | 2.88 ± 0.16 | 2.83 ± 0.096 | – | 1.58 ± 0.12
YALFLKALRRKIYINLA [SSN2] | 1.62 ± 0.092 | 1.31 ± 0.067 | 1.35 ± 0.12 | 1.47 ± 0.085
YYVPYSKLMPVLKSSVY [RPC82] | 1.53 ± 0.064 | 1.85 ± 0.079 | 1.57 ± 0.098 | 1.74 ± 0.079
EKPFNENRFQDTLLLLP [POP4] | 1.52 ± 0.11 | 2.58 ± 0.076 | 1.52 ± 0.14 | 2.72 ± 0.1
SNDFEEGSTIRYLAVTL [YMR129W/POM152] | 2.06 ± 0.05 | 2.28 ± 0.049 | 2.12 ± 0.062 | 2.26 ± 0.053
AVSEKAGHQTSAESWGT [RPL4A] | 2.24 ± 0.086 | 2.03 ± 0.1 | 1.71 ± 0.11 | 1.86 ± 0.088
TEISGLKNVNKRAFENF [SMC3] | 3.28 ± 0.079 | 3.09 ± 0.097 | 2.7 ± 0.096 | 2.96 ± 0.057
LVRRLSDIKQGYTQHGG [PRE9] | 2.5 ± 0.14 | 2.06 ± 0.25 | 2.48 ± 0.09 | –
TPDANLISKPAKKNNFI [UBP6] | 3.12 ± 0.16 | 3.05 ± 0.1 | 3.15 ± 0.12 | 3.21 ± 0.12
PNSERETDHANTENNDP [IRR1] | 2.69 ± 0.073 | 2.87 ± 0.052 | 2.73 ± 0.045 | 2.88 ± 0.044
VYKFMSLAKSSALWSSR [ECM29] | – | 1.97 ± 0.16 | 1.39 ± 0.2 | 1.74 ± 0.29
AVNWQDKQGWTPLFHAL [NAS6] | 2.07 ± 0.16 | 2.1 ± 0.18 | 2.4 ± 0.092 | –
LQKEFLPHITQLEGFES [RPB2] | 1.9 ± 0.047 | 1.84 ± 0.041 | 1.69 ± 0.053 | 1.55 ± 0.025
ENDTNMNETLNLKVELK [SMC4] | 3.43 ± 0.2 | 3.17 ± 0.084 | 3.09 ± 0.13 | 2.99 ± 0.077
SFIFQYYGLVIDLLLLG [PRP8] | 1.48 ± 0.12 | 1.2 ± 0.054 | 1.15 ± 0.16 | 1.24 ± 0.05
EENEDNDGNNRTNNVPM [NUT1] | 3.11 ± 0.12 | 3.39 ± 0.11 | 3.31 ± 0.16 | 3.56 ± 0.089
GFFENIETEFLLFTVKL [IRR1] | 3.12 ± 0.077 | 3.2 ± 0.11 | 3.24 ± 0.049 | 3.12 ± 0.07
LLRLASKSTSMKLSMPP [POP1] | 2.75 ± 0.064 | 2.76 ± 0.065 | 2.69 ± 0.059 | 2.81 ± 0.049
LLAQLNGTVNNNSALSN [RPT3] | 3.23 ± 0.25 | 2.25 ± 0.14 | 1.88 ± 0.097 | 2.34 ± 0.075

From the supplement of paper PMC9732359
